From publication PMC4072508, “Genome-Wide Prediction and Validation of Peptides That Bind Human Prosurvival Bcl-2 Proteins” (PLoS Computational Biology, 2014) come the findings set out here.

Test [1] has as its target T1, Mcl-1, Q07820.
T1 chain: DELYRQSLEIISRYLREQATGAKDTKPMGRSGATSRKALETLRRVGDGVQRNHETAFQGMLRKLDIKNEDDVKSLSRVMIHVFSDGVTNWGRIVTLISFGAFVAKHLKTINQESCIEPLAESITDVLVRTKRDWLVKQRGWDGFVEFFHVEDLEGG
In words: peptide SPOT array, c-Myc-tagged receptor at 1 uM or 100 nM, anti-c-Myc-Cy3.

Test [2] addresses Bcl-xL, Q07817. The test is described as above.

Sequence of Bcl-xL, Q07817 (Q07817 1-209): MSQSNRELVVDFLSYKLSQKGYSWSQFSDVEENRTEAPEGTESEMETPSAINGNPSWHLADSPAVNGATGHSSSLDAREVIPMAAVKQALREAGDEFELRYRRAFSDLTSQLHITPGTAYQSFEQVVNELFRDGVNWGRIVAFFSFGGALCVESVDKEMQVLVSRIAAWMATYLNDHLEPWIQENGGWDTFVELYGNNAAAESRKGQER

In turn, IFNGSNWIMLIYKGGDEYDNHCGKEQ [M6PR] displayed an SPOT signal as a fraction of Bim BH3's signal on the same receptor and array in test [1] of 0.02.

In test [1], DKATENCVCILHNLSYQLEAELPEKY [PKP2] registered an SPOT signal as a fraction of Bim BH3's signal on the same receptor and array of 0.01.

Take SPYVFNGGTILAIALEDFAIVASDTR [PSMB1]: the results for the SPOT signal as a fraction of Bim BH3's signal on the same receptor and array in test [2] and in test [1] were 0.02 and 0.01, respectively.

On to ALKKADVGFADGIAGTDVAKEASDII [ATP2B1], for which the SPOT signal as a fraction of Bim BH3's signal on the same receptor and array in test [2] and in test [1] was 0.01 throughout.

In test [1], QATHDQAVQALKRAGKEVLLEVKFIR [SNTB2] gave an SPOT signal as a fraction of Bim BH3's signal on the same receptor and array of 0.02.

In test [1], KCCYGYCIDLLERLAEDTPFDFELYL [GRIN3B] returned an SPOT signal as a fraction of Bim BH3's signal on the same receptor and array of 0.02.

TESGSFVANLLKDLGLEIGELAVRGA [PCDHB2]: the SPOT signal as a fraction of Bim BH3's signal on the same receptor and array in test [1] amounted to 0.02.

For the molecule TLLTPGYSVIIEKLAEGLDIQLKSPV [KDM1B], the SPOT signal as a fraction of Bim BH3's signal on the same receptor and array in test [1] was 0.02.

In the case of CANHPSAVNVLTEHSEELGEFMETKG [ARHGEF7], in test [1], the SPOT signal as a fraction of Bim BH3's signal on the same receptor and array is 0.01.

Turning to QVQNIKLAGSLQHVAEKLCRELYNKA [CLEC1A], the SPOT signal as a fraction of Bim BH3's signal on the same receptor and array in test [1] is 0.11.

For SSAPAAAAGLLREAGSGGRERADWRR [MAP3K1], the SPOT signal as a fraction of Bim BH3's signal on the same receptor and array in test [1] came to 0.07.

Take AKTSQTVATFLDELAQKLKPLGEQER [THOP1]: the SPOT signal as a fraction of Bim BH3's signal on the same receptor and array in test [1] was 0.02.

In the case of IVIDCSAIQFLDTAGIHTLKEVRRDY [SLC26A2], the SPOT signal as a fraction of Bim BH3's signal on the same receptor and array in test [1] amounted to 0.02.

On to QQMHHNAATAMAQRADMLRGLSPRES [NCOR2], for which the SPOT signal as a fraction of Bim BH3's signal on the same receptor and array stood at 0.06 in test [2] and 0.01 in test [1].

Consider SLIEYKAAVTLQRAALKFLAKYRKKK [IQCB1], for which, in test [1], the SPOT signal as a fraction of Bim BH3's signal on the same receptor and array was determined as 0.24.

On to TWEIECTSEMLKKLSSKVMTKVIKKK [TRANK1], for which the SPOT signal as a fraction of Bim BH3's signal on the same receptor and array in test [1] was found to be 0.11.

For RFVVIDNCIALKKVASRLKKKRKKKN [TTC3], in test [1], the SPOT signal as a fraction of Bim BH3's signal on the same receptor and array is 0.17.

With GVMTQEVGQLLQDMGDDVYQQYRSLT [HUWE1], the SPOT signal as a fraction of Bim BH3's signal on the same receptor and array in test [1] was determined as 0.45.

Take EAGNMAAVGRLQAVSRRLFAELENER [KIAA1751]: in test [1], the SPOT signal as a fraction of Bim BH3's signal on the same receptor and array amounted to 0.02.

Regarding CALLGSTGERICLALDSAGGNLCFTV [LIPE], the SPOT signal as a fraction of Bim BH3's signal on the same receptor and array in test [2] and in test [1] was 0.01 each time.

RGPEAPGGRALRDAAENLFQELQEHF [PRR20C] returned an SPOT signal as a fraction of Bim BH3's signal on the same receptor and array in test [1] of 0.02.

In test [1], HQAEVQIARKLQCIADQFHRLHVQQH [BMF] yielded an SPOT signal as a fraction of Bim BH3's signal on the same receptor and array of 0.48.

Take LRCEMASTGEVACFGEGIHTAFLKAM: the SPOT signal as a fraction of Bim BH3's signal on the same receptor and array in test [2] and in test [1] was 0.03 in each case.

For the molecule SKSKIHAARSLSEIAIDLTETGTLKT [FRMD4A], the SPOT signal as a fraction of Bim BH3's signal on the same receptor and array in test [1] stood at 0.02.

For SAGVPVRGVEDQAAAERFARCFGRTD [TIGD7], the SPOT signal as a fraction of Bim BH3's signal on the same receptor and array in test [2] and in test [1] was 0.02 in each case.

Consider RRTSINVVRHDGIVGECNIQFALHPT, for which the SPOT signal as a fraction of Bim BH3's signal on the same receptor and array in test [2] and in test [1] was 0.03 in each case.

CVSDQELGLLIKEVADALGGGADPET [KCNK4] gave an SPOT signal as a fraction of Bim BH3's signal on the same receptor and array in test [1] of 0.01.

In test [1], GSKSDPLCVLLQDVGGGSWAELGRTE [CPNE1] came in with an SPOT signal as a fraction of Bim BH3's signal on the same receptor and array of 0.02.

In the case of REAAVSASDILQESAIHSPGTVEKEA [C12orf43], in test [1], the SPOT signal as a fraction of Bim BH3's signal on the same receptor and array stood at 0.01.

Turning to SEDHFRAAYLLKDVAKEAYQDVAFTQ [BNC1], in test [1], the SPOT signal as a fraction of Bim BH3's signal on the same receptor and array was determined as 0.02.

As for ELQAPATVQSDGLLGDRLCVGAAGGF [CDC42BPG], the SPOT signal as a fraction of Bim BH3's signal on the same receptor and array in test [2] and in test [1] was 0.01 throughout.

In test [1], ANLEISYAKGLQKLASKLSKALQNTR [NOSTRIN] registered an SPOT signal as a fraction of Bim BH3's signal on the same receptor and array of 0.22.

Take RTVESEAASYLDQISRYYITRAKLVS [PSME3]: in test [1], the SPOT signal as a fraction of Bim BH3's signal on the same receptor and array came out at 0.15.

Consider CGDLASLSIDIWTLLEEVDGRRLVVA [BIRC6], for which the SPOT signal as a fraction of Bim BH3's signal on the same receptor and array in test [2] and in test [1] was 0.03 throughout.
